Results from patent publication US20250090695A1, “IMMUNOSTIMULANT-CYTOTOXIC CONJUGATE COMPOSITION AND METHODS FOR CANCER TREATMENT” (The Research Foundation for the State University of New York, priority 2022, published 2025).

How the values were obtained:
in vivo = settings: C57BL/6J, mouse, total radioactivity
[1] = Biodistribution in a xenograft model of prostate cancer with PC-3 PiP (PSMA(+)) and PC-3 flu (PSMA(−)) tumors; assay type: in vivo, Male NCr nude mice; settings: male, mouse, total radioactivity, PC-3 PiP/PC-3 flu xenograft, NCr nude mice
Method: Biodistribution analyses of ^177Lu-RIMS-1 and ^177Lu-PSMA-617 were carried out in a xenograft model of prostate cancer with a PC-3 PiP tumor (PSMA(+)) on the left shoulder of a murine subject, and a PC-3 flu tumor (PSMA(−)) on the right should of a murine subject. Murine subjects examined were Male NCr nude mice.

[2] = OLINDA dosimetry to adult male from mouse biodistribution
[3] = tested on: CD8+ and CD4+ T-cell populations; test: T-cell population analysis in spleen and tumor of RM1-PGLS bearing mice; assay type: in vivo; set-up: unit not given here; settings: RM1-PGLS bearing C57BL/6J mice
Method: FIG. 12A-12B show graphical representations of T-cell population analysis measuring cell viability in the spleen (FIG. 12A). and in the tumor (FIG. 12B) in vivo for subjects having RM1-PGLS tumors with either an experimental ^177Lu-RIMS compound, or a control compound selected from: ^177Lu-PSMA-617, unlabeled Lu-RIMS, or a control vehicle.
^177Lu-RIMS-1 and control compounds were evaluated for immune cell recruitment.

RM1-PGLS tumors = assay type: in vivo, murine subjects
Method: FIG. 11A-11C show a visual schematic of RM1-PGLS tumor insertion in mice followed by T-cell population analysis (FIG. 11A), and tumor efficacy study analysis for in vivo tumor treatment with experimental ^177Lu-RIMS-1 compound compared with control compounds: ^177Lu-PSMA-617, unlabeled Lu-RIMS, and saline (FIG. 11B) measuring tumor volume (left), and percent survival (right).
Murine subjects were treated with RIMS compounds and tumor volume (FIG. 11B, left), subject viability measured as percent survival (FIG. 11B, right), subject weight (FIG. 11C), were described and analyzed as shown in FIGS. 11A-11C. Median overall survivability (OS) in murine subjects treated with RIMS compounds and control therapies.

T-cells (CD3) = test: Immuno-PET ROI analysis of 89Zr-DFO-anti-CD3 after therapy (tumor infiltrating T-cells); assay type: in vivo, murine subjects
Method: FIG. 13A-13C describes a method and results for T-cell detection using immuno-positron emission tomography (PET).
FIG. 14A-14D show graphical representations of tumor infiltrating T-cell analysis after administration of a therapeutic compound or control. Infiltration was measured using immuno-positron emission tomography (PET).

[4] = Biodistribution Blood (% ID/g ± SD)
[5] = Biodistribution Bone (% ID/g ± SD)
[6] = Biodistribution Heart (% ID/g ± SD)
[7] = Biodistribution Kidney (% ID/g ± SD)
[8] = Biodistribution Liver (% ID/g ± SD)
[9] = Biodistribution Muscle (% ID/g ± SD)
[10] = Biodistribution RM1-PGLS tumor (% ID/g ± SD)
[11] = Biodistribution Sm Int (% ID/g ± SD)
[12] = Biodistribution Spleen (% ID/g ± SD)
[13] = PSMA(+) PC-3 PiP tumor, read-out: Biodistribution PSMA (+) (PC3-PIP) tumor (% ID/g ± SD)
[14] = PSMA(-) PC-3 flu tumor, read-out: Biodistribution PSMA (−) (PC3-Flu) tumor (% ID/g ± SD)
[15] = blood, read-out: Biodistribution Blood (% ID/g ± SD)
[16] = bone, read-out: Biodistribution Bone (% ID/g ± SD)
[17] = heart, read-out: Biodistribution Heart (% ID/g ± SD)
[18] = kidney, read-out: Biodistribution Kidney (% ID/g ± SD)
[19] = liver, read-out: Biodistribution Liver (% ID/g ± SD)
[20] = small intestine, read-out: Biodistribution Sm Int (% ID/g ± SD)
[21] = spleen, read-out: Biodistribution Spleen (% ID/g ± SD)

CCCCc1nc2c(N)nc3ccccc3c2n1Cc1ccc(CNC(=O)OCc2ccc(NC(=O)[C@H](C)NC(=O)[C@@H](NC(=O)CCCCC(=O)N[C@@H](CCCCNC(=O)CN3CCN(CC(=O)O)CCN(CC(=O)O)CCN(CC(=O)O)CC3)C(=O)NC[C@H]3CC[C@H](C(=O)N[C@@H](Cc4ccc5ccccc5c4)C(=O)NCCCC[C@H](NC(=O)N[C@@H](CCC(=O)O)C(=O)O)C(=O)O)CC3)C(C)C)cc2)cc1 [^177Lu-RIMS-1, metal not drawn]
tissue uptake at 2 h (in vivo; [4]): 2.28 ± 0.29 %ID/g
tissue uptake at 24 h (in vivo; [4]): 0.11 ± 0.01 %ID/g
tissue uptake at 72 h (in vivo; [4]): 0.2 %ID/g
tissue uptake at 2 h (in vivo; [5]): 1.03 ± 0.43 %ID/g
tissue uptake at 24 h (in vivo; [5]): 0.24 ± 0.1 %ID/g
tissue uptake at 72 h (in vivo; [5]): 0.14 ± 0.02 %ID/g
tissue uptake at 2 h (in vivo; [6]): 0.83 ± 0.09 %ID/g
tissue uptake at 24 h (in vivo; [6]): 0.13 ± 0.11 %ID/g
tissue uptake at 72 h (in vivo; [6]): 0.03 ± 0.01 %ID/g
tissue uptake at 2 h (in vivo; [7]): 15.3 ± 3.61 %ID/g
tissue uptake at 24 h (in vivo; [7]): 5.03 ± 2.2 %ID/g
tissue uptake at 72 h (in vivo; [7]): 1.66 ± 0.37 %ID/g
tissue uptake at 2 h (in vivo; [8]): 23.4 ± 6.93 %ID/g
tissue uptake at 24 h (in vivo; [8]): 8.69 ± 1.53 %ID/g
tissue uptake at 72 h (in vivo; [8]): 7.28 ± 1.06 %ID/g
tissue uptake at 2 h (in vivo; [9]): 0.27 ± 0.08 %ID/g
tissue uptake at 24 h (in vivo; [9]): 0.04 ± 0.03 %ID/g
tissue uptake at 72 h (in vivo; [9]): 0.02 ± 0.01 %ID/g
tissue uptake at 2 h (in vivo; [10]): 1.98 ± 0.37 %ID/g
tissue uptake at 24 h (in vivo; [10]): 0.66 ± 0.24 %ID/g
tissue uptake at 72 h (in vivo; [10]): 0.23 ± 0.06 %ID/g
tissue uptake at 2 h (in vivo; [11]): 0.55 ± 0.3 %ID/g
tissue uptake at 24 h (in vivo; [11]): 0.07 ± 0.02 %ID/g
tissue uptake at 72 h (in vivo; [11]): 0.05 ± 0.01 %ID/g
tissue uptake at 2 h (in vivo; [12]): 10.3 ± 2.96 %ID/g
tissue uptake at 24 h (in vivo; [12]): 2.16 ± 0.73 %ID/g
tissue uptake at 72 h (in vivo; [12]): 1.14 ± 0.36 %ID/g
tissue uptake at 2 h [1, 13]: 7.16 ± 2.68 %ID/g
tissue uptake at 24 h [1, 13]: 6.04 ± 1.76 %ID/g
tissue uptake at 72 h [1, 13]: 2.65 ± 1.03 %ID/g
tissue uptake at 2 h [1, 14]: 1.65 ± 0.24 %ID/g
tissue uptake at 24 h [1, 14]: 0.16 ± 0.01 %ID/g
tissue uptake at 2 h [1, 15]: 3.36 ± 0.2 %ID/g
tissue uptake at 24 h [1, 15]: 0.06 ± 0.01 %ID/g
tissue uptake at 72 h [1, 15]: 0.01 ± 0.01 %ID/g
tissue uptake at 2 h [1, 16]: 0.72 ± 0.15 %ID/g
tissue uptake at 24 h [1, 16]: 0.17 ± 0.06 %ID/g
tissue uptake at 72 h [1, 16]: 0.1 ± 0.04 %ID/g
tissue uptake at 2 h [1, 17]: 1.28 ± 0.08 %ID/g
tissue uptake at 24 h [1, 17]: 0.16 ± 0.02 %ID/g
tissue uptake at 72 h [1, 17]: 0.06 ± 0.01 %ID/g
tissue uptake at 2 h [1, 18]: 24.5 ± 2.58 %ID/g
tissue uptake at 24 h [1, 18]: 6.24 ± 1.03 %ID/g
tissue uptake at 72 h [1, 18]: 2.1 ± 0.31 %ID/g
tissue uptake at 2 h [1, 19]: 7.95 ± 0.35 %ID/g
tissue uptake at 24 h [1, 19]: 3.19 ± 0.38 %ID/g
tissue uptake at 72 h [1, 19]: 1.36 ± 0.29 %ID/g
tissue uptake at 2 h ([1]; muscle, read-out: Biodistribution Muscle (% ID/g ± SD)): 0.36 ± 0.06 %ID/g
tissue uptake at 2 h [1, 20]: 1.15 ± 0.1 %ID/g
tissue uptake at 24 h [1, 20]: 0.54 ± 0.8 %ID/g
tissue uptake at 2 h [1, 21]: 2.32 ± 0.052 %ID/g
tissue uptake at 24 h [1, 21]: 0.77 ± 0.31 %ID/g
tissue uptake at 72 h [1, 21]: 0.29 ± 0.11 %ID/g
OLINDA dosimetry to Adult Male, Adrenals ([2]; Target Organ Adrenals): 8.71 μSv/MBq
OLINDA dosimetry to Adult Male, Brain ([2]; Target Organ Brain): 0.02 μSv/MBq
OLINDA dosimetry to Adult Male, Esophagus ([2]; Target Organ Esophagus): 2.03 μSv/MBq
OLINDA dosimetry to Adult Male, Eyes ([2]; Target Organ Eyes): 0.02 μSv/MBq
OLINDA dosimetry to Adult Male, Gallbladder Wall ([2]; Target Organ Gallbladder Wall): 7.09 μSv/MBq
OLINDA dosimetry to Adult Male, Heart Wall ([2]; Target Organ Heart Wall): 16.60 μSv/MBq
OLINDA dosimetry to Adult Male, Kidneys ([2]; Target Organ Kidneys): 262.00 μSv/MBq
OLINDA dosimetry to Adult Male, Left Colon ([2]; Target Organ Left Colon): 1.26 μSv/MBq
OLINDA dosimetry to Adult Male, Liver ([2]; Target Organ Liver): 219.00 μSv/MBq
OLINDA dosimetry to Adult Male, Lungs ([2]; Target Organ Lungs): 15.10 μSv/MBq
OLINDA dosimetry to Adult Male, Osteogenic Cells ([2]; Target Organ Osteogenic Cells): 3.70 μSv/MBq
OLINDA dosimetry to Adult Male, Pancreas ([2]; Target Organ Pancreas): 2.49 μSv/MBq
OLINDA dosimetry to Adult Male, Prostate ([2]; Target Organ Prostate): 0.34 μSv/MBq
OLINDA dosimetry to Adult Male, Rectum ([2]; Target Organ Rectum): 0.25 μSv/MBq
OLINDA dosimetry to Adult Male, Red Marrow ([2]; Target Organ Red Marrow): 1.39 μSv/MBq
OLINDA dosimetry to Adult Male, Right Colon ([2]; Target Organ Right Colon): 1.94 μSv/MBq
OLINDA dosimetry to Adult Male, Salivary Glands ([2]; Target Organ Salivary Glands): 0.05 μSv/MBq
OLINDA dosimetry to Adult Male, Small Intestine ([2]; Target Organ Small Intestine): 3.60 μSv/MBq
OLINDA dosimetry to Adult Male, Spleen ([2]; Target Organ Spleen): 228.00 μSv/MBq
OLINDA dosimetry to Adult Male, Stomach Wall ([2]; Target Organ Stomach Wall): 2.02 μSv/MBq
OLINDA dosimetry to Adult Male, Thymus ([2]; Target Organ Thymus): 0.95 μSv/MBq
OLINDA dosimetry to Adult Male, Thyroid ([2]; Target Organ Thyroid): 0.36 μSv/MBq
OLINDA dosimetry to Adult Male, Today Body ([2]; Target Organ Total Body): 7.73 μSv/MBq
OLINDA dosimetry to Adult Male, Tumor ([2]; Target Organ Tumor): 237.00 μSv/MBq
OLINDA dosimetry to Adult Male, Urinary Bladder Wall ([2]; Target Organ Urinary Bladder Wall): 10.90 μSv/MBq
Total CD4+ T-cell population ([3]; Spleen): 14.51 ± 2.24
Total CD8+ T-cell population ([3]; Spleen): 7.70 ± 0.84
Total CD4+ T-cell population ([3]; Tumor): 2.07 ± 1.54
Total CD8+ T-cell population ([3]; Tumor): 4.72 ± 2.70
Relative body weight (RM1-PGLS tumors; mouse, in vivo): decrease in relative body weight
Median OS (RM1-PGLS tumors; overall survival post treatment, RM1-PGLS tumors, P < 0.0007 printed for 177Lu-RIMS-1): 30 days
% Injected Dose/cc of 89Zr-DFO-anti-CD3 (ROI) (T-cells (CD3); Blood, 8 days after administration of therapy): 7.95 ± 0.75 % Injected Dose/cc
% Injected Dose/cc of 89Zr-DFO-anti-CD3 (ROI) (T-cells (CD3); Blood, 9 days after administration of therapy): 7.075 ± 0.94 % Injected Dose/cc
% Injected Dose/cc of 89Zr-DFO-anti-CD3 (ROI) (T-cells (CD3); Blood, 10 days after administration of therapy): 4.98 ± 0.61 % Injected Dose/cc
% Injected Dose/cc of 89Zr-DFO-anti-CD3 (ROI) (T-cells (CD3); Blood, 11 days after administration of therapy): 4.33 ± 1.40 % Injected Dose/cc
% Injected Dose/cc of 89Zr-DFO-anti-CD3 (ROI) (T-cells (CD3); Blood, 12 days after administration of therapy): 3.07 ± 1.23 % Injected Dose/cc
% Injected Dose/cc of 89Zr-DFO-anti-CD3 (ROI) (T-cells (CD3); Spleen, 8 days after administration of therapy): 15.65 ± 0.96 % Injected Dose/cc
% Injected Dose/cc of 89Zr-DFO-anti-CD3 (ROI) (T-cells (CD3); Spleen, 9 days after administration of therapy): 19.39 ± 3.46 % Injected Dose/cc
% Injected Dose/cc of 89Zr-DFO-anti-CD3 (ROI) (T-cells (CD3); Spleen, 10 days after administration of therapy): 18.45 ± 1.30 % Injected Dose/cc
% Injected Dose/cc of 89Zr-DFO-anti-CD3 (ROI) (T-cells (CD3); Spleen, 11 days after administration of therapy): 19.06 ± 2.34 % Injected Dose/cc
% Injected Dose/cc of 89Zr-DFO-anti-CD3 (ROI) (T-cells (CD3); Spleen, 12 days after administration of therapy): 18.54 ± 1.04 % Injected Dose/cc
% Injected Dose/cc of 89Zr-DFO-anti-CD3 (ROI) (T-cells (CD3); Tumor, 8 days after administration of therapy): 15.85 ± 3.12 % Injected Dose/cc
% Injected Dose/cc of 89Zr-DFO-anti-CD3 (ROI) (T-cells (CD3); Tumor, 9 days after administration of therapy): 14.94 ± 2.65 % Injected Dose/cc
% Injected Dose/cc of 89Zr-DFO-anti-CD3 (ROI) (T-cells (CD3); Tumor, 10 days after administration of therapy): 13.74 ± 3.74 % Injected Dose/cc
% Injected Dose/cc of 89Zr-DFO-anti-CD3 (ROI) (T-cells (CD3); Tumor, 11 days after administration of therapy): 12.20 ± 4.43 % Injected Dose/cc
% Injected Dose/cc of 89Zr-DFO-anti-CD3 (ROI) (T-cells (CD3); Tumor, 12 days after administration of therapy): 11.83 ± 5.22 % Injected Dose/cc
